# Assay results taken from paper PMC3678298, “Catalytic preference of Salmonella typhimurium LT2 sialidase for N-acetylneuraminic acid residues over N-glycolylneuraminic acid residues^” (FEBS Open Bio, 2013).
# Tested on: Cc1cc(=O)oc2cc(O[C@@]3(C(=O)O)C[C@H](O)[C@@H](NC(=O)CO)[C@H]([C@H](O)[C@H](O)CO)O3)ccc12
# Experiment: purified protein
# Conditions: 80 mM sodium acetate pH 6.0, 80 mM NaCl, 0.8 mg/ml BSA, 37 °C, 10 mU/ml enzyme
# Text: 4MU fluorescence; Lineweaver-Burk on STSA (Salmonella typhimurium LT2 sialidase)
substance,measurement,value
STSA (Salmonella typhimurium LT2 sialidase) (Salmonella enterica subsp. enterica serovar Typhimurium str. LT2),Km,3.10 mM
same,kcat,40 s⁻¹
same,kcat/Km,13100 M⁻¹ s⁻¹
